Where two headings read alike, the source gives them in different places.
Assays:
[1] = target: T1, Na-Cl co-transporter (NCC) (Mus musculus, UniProt P59158)
T1 chain: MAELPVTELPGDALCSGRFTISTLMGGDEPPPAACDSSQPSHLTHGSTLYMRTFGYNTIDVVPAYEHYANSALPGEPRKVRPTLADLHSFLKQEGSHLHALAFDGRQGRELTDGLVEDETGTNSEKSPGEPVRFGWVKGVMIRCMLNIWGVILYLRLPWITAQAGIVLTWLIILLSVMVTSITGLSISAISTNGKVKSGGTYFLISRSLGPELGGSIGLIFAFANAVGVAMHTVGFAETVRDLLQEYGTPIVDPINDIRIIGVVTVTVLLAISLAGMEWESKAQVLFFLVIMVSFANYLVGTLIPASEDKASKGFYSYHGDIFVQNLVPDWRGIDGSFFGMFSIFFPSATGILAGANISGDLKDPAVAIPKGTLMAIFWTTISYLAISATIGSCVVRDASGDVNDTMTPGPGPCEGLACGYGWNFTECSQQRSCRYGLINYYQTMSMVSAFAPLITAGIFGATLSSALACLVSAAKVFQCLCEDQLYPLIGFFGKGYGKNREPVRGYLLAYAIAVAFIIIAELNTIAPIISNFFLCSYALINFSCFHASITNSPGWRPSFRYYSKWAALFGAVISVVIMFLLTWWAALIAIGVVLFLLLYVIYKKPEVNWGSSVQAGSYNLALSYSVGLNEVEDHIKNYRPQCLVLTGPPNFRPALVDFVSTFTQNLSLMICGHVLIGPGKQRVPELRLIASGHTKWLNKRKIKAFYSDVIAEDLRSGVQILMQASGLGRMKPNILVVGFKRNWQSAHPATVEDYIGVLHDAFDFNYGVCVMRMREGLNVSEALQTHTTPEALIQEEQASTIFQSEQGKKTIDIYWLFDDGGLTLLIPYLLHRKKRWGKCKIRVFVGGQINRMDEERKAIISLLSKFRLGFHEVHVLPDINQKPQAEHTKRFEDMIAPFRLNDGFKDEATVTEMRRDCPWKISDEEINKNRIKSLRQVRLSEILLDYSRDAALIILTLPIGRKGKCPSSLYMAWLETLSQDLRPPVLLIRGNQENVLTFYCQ

[2] = target: T1, Na-Cl co-transporter (NCC); test: FITC-IL18 binding to NCC-transfected COS-7 cell membranes, Scatchard analysis

Kd [1]: 21.4 nM
Kd [2]: 17.3 nM
B1: IL-18 (protein)
chain: NFGRLHCTTAVIRNINDQVLFVDKRQPVFEDMTDIDQSASEPQTRLIIYMYKDSEVRGLAVTLSVKDSKMSTLSCKNKIISFEEMDPPENIDDIQSDLIFFQKRVPGHNKMEFESSLYEGHFLACQKEDDAFKLILKKKDENGDKSVMFTLTNLHQS
modifications: FITC-conjugated IL18

— publication PMC4554539 (2016)
